From publication PMC3981948 (Mucosal immunology, 2013) come the findings set out here.

Assay [1] deals with T1, purified wild type CEACAM5 (human, UniProt P06731-1 35-685).
T1 sequence (looked up): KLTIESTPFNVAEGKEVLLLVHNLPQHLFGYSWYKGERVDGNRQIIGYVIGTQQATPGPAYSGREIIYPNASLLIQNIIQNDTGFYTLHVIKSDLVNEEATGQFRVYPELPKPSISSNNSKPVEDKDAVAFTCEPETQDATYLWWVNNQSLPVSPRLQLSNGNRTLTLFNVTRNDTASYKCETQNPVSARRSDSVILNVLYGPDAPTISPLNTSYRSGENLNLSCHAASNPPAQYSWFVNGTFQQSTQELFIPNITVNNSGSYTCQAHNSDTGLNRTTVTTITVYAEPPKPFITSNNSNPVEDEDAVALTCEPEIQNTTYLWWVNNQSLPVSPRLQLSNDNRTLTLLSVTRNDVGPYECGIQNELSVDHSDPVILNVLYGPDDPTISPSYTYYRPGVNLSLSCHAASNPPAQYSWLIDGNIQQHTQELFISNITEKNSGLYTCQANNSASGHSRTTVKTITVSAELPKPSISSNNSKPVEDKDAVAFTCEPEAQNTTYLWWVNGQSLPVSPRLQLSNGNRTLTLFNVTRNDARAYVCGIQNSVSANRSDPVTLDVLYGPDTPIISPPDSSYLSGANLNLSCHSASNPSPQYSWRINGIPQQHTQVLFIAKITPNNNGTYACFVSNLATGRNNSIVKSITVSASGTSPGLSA
As to the kind of experiment: SPR.

For assay [2], the target named is T2, purified CEACAM5 mutant N70,81A (human, UniProt P06731-1 35-685, N70,81A | N70,81A).
T2 sequence (looked up): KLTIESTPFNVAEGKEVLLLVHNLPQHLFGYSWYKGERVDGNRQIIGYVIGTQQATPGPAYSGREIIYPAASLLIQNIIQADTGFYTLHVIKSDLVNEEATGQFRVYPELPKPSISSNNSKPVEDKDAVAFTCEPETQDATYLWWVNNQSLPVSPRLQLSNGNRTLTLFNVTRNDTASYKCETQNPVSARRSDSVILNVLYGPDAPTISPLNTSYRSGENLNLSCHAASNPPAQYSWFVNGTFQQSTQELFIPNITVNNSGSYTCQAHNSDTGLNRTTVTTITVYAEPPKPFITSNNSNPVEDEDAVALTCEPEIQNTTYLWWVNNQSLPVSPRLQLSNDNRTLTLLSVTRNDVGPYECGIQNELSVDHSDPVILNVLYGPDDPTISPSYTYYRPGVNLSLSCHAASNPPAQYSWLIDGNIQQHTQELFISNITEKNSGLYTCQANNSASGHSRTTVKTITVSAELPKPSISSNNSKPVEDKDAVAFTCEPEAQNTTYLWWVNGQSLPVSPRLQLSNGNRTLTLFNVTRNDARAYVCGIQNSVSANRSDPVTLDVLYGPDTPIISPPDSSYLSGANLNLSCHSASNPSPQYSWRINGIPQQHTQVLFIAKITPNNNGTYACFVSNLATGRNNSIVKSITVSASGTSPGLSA
As to the kind of experiment: SPR.

B1: purified extracellular domain of CD8α (domain or fragment)
chain: not shown
In assay [1], B1 came in with a Kd of 0.022 µM, a koff of 0.00056 s⁻¹ and a kon of 26000 M⁻¹ s⁻¹. In addition, in assay [2], binding was characterised by a dissociation constant (Kd) of 16 µM, the dissociation rate constant (koff) turned out to be 0.0047 s⁻¹ and the on-rate constant (kon) was determined as 290 M⁻¹ s⁻¹.
